How the values were obtained:
Assay in all cases: SPR
[1] = target: Ghfp^M4–5 (R288H and D318G) (Neisseria gonorrhoeae strain FA1090)
[2] = target: factor H binding protein (fHbp) V3.45, recombinant, wild type (Neisseria meningitidis) (UniProt E6MV22)
[3] = target: Ghfp^M4 (R288H) (Neisseria gonorrhoeae strain FA1090)

complement control protein (CCP) domains 6 and 7 of fH (fH6–7) (domain or fragment)
Kd [1]: 2 nM
Kd [2]: 1 nM
Kd [3]: 16 nM

Reference: PMC3731240
